Results taken from patent publication US20140120555A1 (PIERRE FABRE MEDICAMENT, published 2014).

Target: T1, Recombinant mouse FcγRIII [CD16], Ala31-Thr215 with C-terminal 10-His tag (mouse, UniProt P08508 31-215)
T1 construct: Soluble form bought from R&D Systems; also called m-FcγRIII
T1 sequence: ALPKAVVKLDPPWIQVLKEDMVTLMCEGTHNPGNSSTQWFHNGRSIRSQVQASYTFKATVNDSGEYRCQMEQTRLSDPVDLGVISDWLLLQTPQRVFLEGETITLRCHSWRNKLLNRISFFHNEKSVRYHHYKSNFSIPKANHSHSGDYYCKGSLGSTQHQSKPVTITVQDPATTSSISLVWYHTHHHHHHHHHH
Assay: SPR (Biacore X), Mab on CM4 chip, m-FcγRIII as analyte, Langmuïr model; lower of the two Langmuïr-fit values
Protocol: 1964 RU of hz515H7VH1D76NVL2 Mab were immobilized using the amine coupling kit chemistry on the second flowcell (FC2) of a CM4 sensorchip. The first flowcell (FC1) activated by NHS and EDC mixture and des-activated by ethanolamine served as the reference surface to check and subtract the non specific interaction between the analyte (Fc gamma receptors) and the sensorchip matrix.
The kinetic experiments were carried out at 25° Celsius at a flow rate of 30 μl/min. The HBS-EP buffer was used either as the running buffer or for the preparation of analyte solutions. The analyte solutions were injected during 90 seconds (association phase) with a 90 seconds delay (dissociation phase). An injection of running buffer as analyte was used as a double reference. All the sensorgrams were corrected by this double reference sensorgram.
Using the Langmuïr model the constant of dissociation was around 17 and 18 nM.

B1: humanized antibody Hz515H7 VH1 D76N VL2 (antibody, human IgG1, kappa)
heavy: not shown
light: DIVMTQSPSSLAVSLGERATMSCKSSQSLFNSRTRKNYLAWYQQKPGQSPKLLIYWASARDSGVPARFTGSGSETYFTLTISRVQAEDLAVYYCMQSFNLRTFGQGTKVEIKRTVAAPSVFIFPPSDEQLKSGTASVVCLLNNFYPREAKVQWKVDNALQSGNSQESVTEQDSKDSTYSLSSTLTLSKADYEKHKVYACEVTHQGLSSPVTKSFNRGEC
notes: IgG1/kappa; also called hz515H7VL2; hz515H7-1
Kd: ~17 nM
